This is an account of results in US20050096288.

Where only a bound is given, the exact number is not on record here.

The target in this data set is VLDL (apolipoprotein B-100 containing) (Homo sapiens) (UniProt P04114). Kind of data set: EMSA. The conditions noted are these: LDL has greater affinity. On the technique in general: In EMSA bound probe runs differently from free probe, usually more slowly.
UniProt P04114, sequence (P04114 28-4563): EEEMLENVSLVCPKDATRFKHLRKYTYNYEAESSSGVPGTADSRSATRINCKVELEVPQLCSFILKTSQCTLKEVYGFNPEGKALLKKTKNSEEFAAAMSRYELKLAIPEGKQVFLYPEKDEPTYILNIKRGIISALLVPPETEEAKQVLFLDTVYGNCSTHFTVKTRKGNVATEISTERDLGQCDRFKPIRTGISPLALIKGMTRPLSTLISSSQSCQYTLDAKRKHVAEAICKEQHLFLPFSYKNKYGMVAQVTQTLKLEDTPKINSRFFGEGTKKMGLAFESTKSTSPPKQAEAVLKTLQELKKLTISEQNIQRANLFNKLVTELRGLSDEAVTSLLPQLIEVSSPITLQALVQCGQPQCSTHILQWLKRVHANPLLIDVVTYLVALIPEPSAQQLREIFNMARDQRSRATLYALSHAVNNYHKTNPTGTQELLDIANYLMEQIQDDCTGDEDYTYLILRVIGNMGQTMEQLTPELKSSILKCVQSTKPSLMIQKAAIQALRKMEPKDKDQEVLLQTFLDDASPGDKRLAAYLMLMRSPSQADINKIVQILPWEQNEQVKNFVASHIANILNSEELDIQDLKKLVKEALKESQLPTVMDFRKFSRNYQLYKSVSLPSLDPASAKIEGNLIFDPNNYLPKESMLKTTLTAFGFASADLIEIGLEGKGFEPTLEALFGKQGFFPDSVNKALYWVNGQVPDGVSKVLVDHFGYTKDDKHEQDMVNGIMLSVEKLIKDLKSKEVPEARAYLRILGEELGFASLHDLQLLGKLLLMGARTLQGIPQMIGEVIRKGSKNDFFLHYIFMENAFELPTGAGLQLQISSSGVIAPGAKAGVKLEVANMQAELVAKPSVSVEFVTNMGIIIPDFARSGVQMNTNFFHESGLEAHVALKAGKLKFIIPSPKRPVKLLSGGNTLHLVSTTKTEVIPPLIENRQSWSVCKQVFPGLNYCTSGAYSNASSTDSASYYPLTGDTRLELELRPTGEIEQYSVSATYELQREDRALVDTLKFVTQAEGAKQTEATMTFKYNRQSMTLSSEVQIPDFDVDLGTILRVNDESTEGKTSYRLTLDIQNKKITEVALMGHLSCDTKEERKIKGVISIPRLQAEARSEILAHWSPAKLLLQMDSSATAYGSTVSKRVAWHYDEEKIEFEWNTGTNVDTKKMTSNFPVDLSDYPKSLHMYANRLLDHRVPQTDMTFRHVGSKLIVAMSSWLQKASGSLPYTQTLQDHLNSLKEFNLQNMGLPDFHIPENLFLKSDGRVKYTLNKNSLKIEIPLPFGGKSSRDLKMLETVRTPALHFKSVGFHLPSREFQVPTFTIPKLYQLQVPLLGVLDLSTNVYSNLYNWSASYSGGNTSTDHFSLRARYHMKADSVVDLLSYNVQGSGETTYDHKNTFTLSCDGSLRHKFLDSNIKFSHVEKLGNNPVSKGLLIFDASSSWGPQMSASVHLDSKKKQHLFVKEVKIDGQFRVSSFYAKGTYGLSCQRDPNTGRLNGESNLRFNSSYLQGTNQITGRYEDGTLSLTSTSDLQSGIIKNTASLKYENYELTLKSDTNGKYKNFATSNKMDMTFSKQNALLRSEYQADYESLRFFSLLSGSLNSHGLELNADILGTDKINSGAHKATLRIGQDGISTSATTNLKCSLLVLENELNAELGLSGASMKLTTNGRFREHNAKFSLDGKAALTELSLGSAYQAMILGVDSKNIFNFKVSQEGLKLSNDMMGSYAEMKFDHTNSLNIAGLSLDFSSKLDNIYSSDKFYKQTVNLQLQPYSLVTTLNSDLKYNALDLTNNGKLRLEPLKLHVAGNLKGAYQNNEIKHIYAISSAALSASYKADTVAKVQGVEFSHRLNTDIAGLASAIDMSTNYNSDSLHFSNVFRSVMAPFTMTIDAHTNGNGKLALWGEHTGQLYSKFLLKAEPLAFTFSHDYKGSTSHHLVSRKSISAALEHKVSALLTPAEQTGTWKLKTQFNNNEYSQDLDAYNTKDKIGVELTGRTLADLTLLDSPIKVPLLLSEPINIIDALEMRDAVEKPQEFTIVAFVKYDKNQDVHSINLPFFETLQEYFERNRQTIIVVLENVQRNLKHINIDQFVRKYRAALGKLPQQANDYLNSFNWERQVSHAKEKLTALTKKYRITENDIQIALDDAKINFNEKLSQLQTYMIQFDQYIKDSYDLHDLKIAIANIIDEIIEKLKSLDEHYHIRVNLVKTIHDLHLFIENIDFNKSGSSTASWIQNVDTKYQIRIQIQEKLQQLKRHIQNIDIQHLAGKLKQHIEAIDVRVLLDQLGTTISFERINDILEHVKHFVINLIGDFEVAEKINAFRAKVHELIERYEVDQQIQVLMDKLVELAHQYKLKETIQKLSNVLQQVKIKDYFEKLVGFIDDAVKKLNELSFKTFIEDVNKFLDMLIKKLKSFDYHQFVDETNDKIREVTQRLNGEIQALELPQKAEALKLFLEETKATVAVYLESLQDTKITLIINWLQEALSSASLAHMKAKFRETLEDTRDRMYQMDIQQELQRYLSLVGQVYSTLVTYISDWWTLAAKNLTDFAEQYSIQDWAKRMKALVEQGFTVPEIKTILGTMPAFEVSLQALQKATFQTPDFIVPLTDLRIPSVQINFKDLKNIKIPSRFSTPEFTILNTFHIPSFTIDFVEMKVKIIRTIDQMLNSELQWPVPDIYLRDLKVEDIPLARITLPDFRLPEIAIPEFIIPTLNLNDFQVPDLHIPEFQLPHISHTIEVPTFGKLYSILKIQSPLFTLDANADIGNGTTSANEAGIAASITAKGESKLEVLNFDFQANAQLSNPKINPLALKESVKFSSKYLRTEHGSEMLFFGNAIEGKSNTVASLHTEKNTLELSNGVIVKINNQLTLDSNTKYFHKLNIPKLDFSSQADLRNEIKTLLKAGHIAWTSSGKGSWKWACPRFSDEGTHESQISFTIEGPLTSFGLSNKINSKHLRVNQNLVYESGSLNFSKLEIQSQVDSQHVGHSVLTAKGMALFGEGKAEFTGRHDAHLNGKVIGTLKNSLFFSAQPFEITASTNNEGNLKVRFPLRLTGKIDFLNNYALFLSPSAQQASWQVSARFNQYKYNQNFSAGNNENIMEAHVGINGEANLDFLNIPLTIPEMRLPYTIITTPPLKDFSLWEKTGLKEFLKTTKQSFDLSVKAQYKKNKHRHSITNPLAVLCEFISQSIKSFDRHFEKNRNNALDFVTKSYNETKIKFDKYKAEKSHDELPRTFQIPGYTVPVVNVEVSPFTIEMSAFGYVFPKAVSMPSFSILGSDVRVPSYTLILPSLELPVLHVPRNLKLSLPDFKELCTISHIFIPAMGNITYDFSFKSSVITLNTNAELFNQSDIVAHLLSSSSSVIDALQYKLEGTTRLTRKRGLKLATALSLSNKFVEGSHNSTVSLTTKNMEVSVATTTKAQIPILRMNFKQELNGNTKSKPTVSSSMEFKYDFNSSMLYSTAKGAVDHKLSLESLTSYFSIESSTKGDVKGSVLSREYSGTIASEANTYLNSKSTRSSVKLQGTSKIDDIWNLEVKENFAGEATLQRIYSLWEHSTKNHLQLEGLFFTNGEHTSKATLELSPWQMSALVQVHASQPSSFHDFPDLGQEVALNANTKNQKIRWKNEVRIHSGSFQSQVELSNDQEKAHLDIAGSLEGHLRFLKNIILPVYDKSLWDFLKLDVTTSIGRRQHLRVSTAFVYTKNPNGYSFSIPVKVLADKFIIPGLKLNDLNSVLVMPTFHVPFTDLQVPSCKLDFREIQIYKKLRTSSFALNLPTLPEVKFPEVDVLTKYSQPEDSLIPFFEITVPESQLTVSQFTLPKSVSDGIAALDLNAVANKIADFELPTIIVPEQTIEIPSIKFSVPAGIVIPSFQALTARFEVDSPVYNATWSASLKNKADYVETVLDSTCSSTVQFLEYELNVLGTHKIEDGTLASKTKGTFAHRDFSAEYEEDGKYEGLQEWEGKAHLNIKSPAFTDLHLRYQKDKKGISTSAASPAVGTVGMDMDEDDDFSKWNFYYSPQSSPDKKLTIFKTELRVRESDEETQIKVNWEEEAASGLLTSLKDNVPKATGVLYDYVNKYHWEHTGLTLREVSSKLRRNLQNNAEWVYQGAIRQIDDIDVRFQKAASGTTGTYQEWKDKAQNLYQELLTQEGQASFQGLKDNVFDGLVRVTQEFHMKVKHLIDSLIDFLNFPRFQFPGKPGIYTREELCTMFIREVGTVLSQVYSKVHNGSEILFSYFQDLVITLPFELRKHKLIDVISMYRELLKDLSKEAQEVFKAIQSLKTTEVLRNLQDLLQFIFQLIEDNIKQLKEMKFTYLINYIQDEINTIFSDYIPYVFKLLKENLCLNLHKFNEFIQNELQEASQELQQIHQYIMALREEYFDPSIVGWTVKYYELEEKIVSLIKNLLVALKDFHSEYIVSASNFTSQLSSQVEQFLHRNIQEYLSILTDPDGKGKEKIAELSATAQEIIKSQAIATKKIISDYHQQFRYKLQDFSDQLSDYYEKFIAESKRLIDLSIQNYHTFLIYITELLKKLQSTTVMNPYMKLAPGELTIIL

The substance “E/C oligonucleotide (E-box CANNTG and CCAAT)” gave a binding signal (% of total labeled DNA) of less than 1.
Under SRE oligonucleotide stands less than 1.
